We go through four molecules from patent WO2012092539A2 (dated 2012).

In the test the target is DLL4 protein (R&D Systems) (Homo sapiens (Human), UniProt Q9NR61 27-524). Description: cell-based or functional assay.
Chain of DLL4 protein (R&D Systems) (Q9NR61 27-524 limits assumed): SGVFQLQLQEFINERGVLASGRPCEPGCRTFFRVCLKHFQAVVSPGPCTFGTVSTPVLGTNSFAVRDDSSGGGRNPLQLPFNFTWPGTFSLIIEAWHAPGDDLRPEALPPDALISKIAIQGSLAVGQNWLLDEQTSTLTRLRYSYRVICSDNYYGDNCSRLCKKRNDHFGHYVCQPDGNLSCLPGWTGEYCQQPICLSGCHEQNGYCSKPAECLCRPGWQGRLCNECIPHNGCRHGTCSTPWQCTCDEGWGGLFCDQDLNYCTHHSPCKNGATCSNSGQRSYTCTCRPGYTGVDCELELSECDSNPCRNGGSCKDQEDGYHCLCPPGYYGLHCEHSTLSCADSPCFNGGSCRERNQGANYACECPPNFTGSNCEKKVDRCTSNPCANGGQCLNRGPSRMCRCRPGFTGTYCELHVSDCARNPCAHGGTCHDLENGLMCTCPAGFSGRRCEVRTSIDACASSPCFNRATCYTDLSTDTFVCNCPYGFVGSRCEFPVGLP

B1: BA1 (antibody, V domains shown)
VH: QVQLVQSGAEVKKPGASVKISCKASGYSFTAYYIHWVKQAPGQGLEWIGYISSYNGATNYNQKFKGRVTFTTDTSTSTAYMELRSLRSDDTAVYYCARDYDYDVGMDYWGQGTLVTVSS
VL: DIVMTQSPDSLAVSLGERATISCRASESVDNYGISFMKWFQQKPGQPPKLLIYAASNQGSGVPDRFSGSGSGTDFTLTISSLQAEDVAVYYCQQSKEVPWTFGGGTKVEIKR
Regarding B1, the “EC50, HUVEC proliferation on DLL4-coated wells (CellTiter Glo, day 3)” value (“EC50, HUVEC proliferation” for short) was determined as 60 nM.

B2: BA2 (antibody, V domains shown)
VH: EVQLVESGGGLVQPGGSLRLSCAASGFTFTDNWISWVRQAPGKGLEWVGYISPNSGFTYYADSVKGRFTISADTSKNTAYLQMNSLRAEDTAVYYCARDNFGGYFDYWGQGTLVTVSS
VL: DIQMTQSPSSLSASVGDRVTITCRASQDVSTAVAWYQQKPGKAPKLLIYSASFLYSGVPSRFSGSGSGTDFTLTISSLQPEDFATYYCQQSYTGTVTFGQGTKVEIKR
As for B2, the “EC50, HUVEC proliferation” value was 45 nM.

B3: 12.3 1C1 (antibody, V domains shown)
VH: DVQLQESGPDLVKPSQSLSLTCTVTDHSITSGYSWHWIRQFPGNKLEWMAYIHYSGYTHYNPSLKSRISITRDTSKNQFFLHLNSVTTEDSATFYCAGSDYSANEGAMAYWGQGTSATVSS
VL: DIVLTQSPASLAVSLGQRATISCRASESVDSFGNSFMHWYQQKAGQPPKLLIYRTSNLQSGIPARFSGSGSRTDFTLTINPVEADDVATYYCQQSNEDPWTFGGGTKLEIKR
In the case of B3, the “EC50, HUVEC proliferation” value came out at 3.9 nM.

B4: 12.55 (antibody, human IgG2, V domains shown)
VH: EVQLVETGGGLVQPGGSLRLSCAASGFTFSDYAMSWVRQTPGKGLEWVSTISGSGGDTFYADSVKGRFTISRDNSKNTLYLQVNSLRAEDTAVYYCAKDKNRGAYADAFDIWGQGTMVTVSS
VL: QAVLTQPASLSASPGASASLTCTLRSDINVATYRIYWYKQKPGSPPQYLLTYKSDSDKQQGSGVPSRFSGSKDSSANAGILLISGLQSDDEADYHCMVWHKSAPIFGGGTKVTVLG
Take B4: the “EC50, HES1 luciferase reporter in HELA cells on DLL4-coated wells” value was found to be 21.9 nM.
